In publication PMC5227094:

Biological target: PSD95 (mouse (endogenous in forebrain)) (UniProt Q62108)
Assay: native gel or EMSA; BNP GluN1 immunoblot of forebrain deoxycholate extracts of WT and Glun2b^2A(CTR)/2A(CTR) mice; 1.5-NR band quantified relative to WT

UniProt Q62108, sequence (Q62108 whole entry): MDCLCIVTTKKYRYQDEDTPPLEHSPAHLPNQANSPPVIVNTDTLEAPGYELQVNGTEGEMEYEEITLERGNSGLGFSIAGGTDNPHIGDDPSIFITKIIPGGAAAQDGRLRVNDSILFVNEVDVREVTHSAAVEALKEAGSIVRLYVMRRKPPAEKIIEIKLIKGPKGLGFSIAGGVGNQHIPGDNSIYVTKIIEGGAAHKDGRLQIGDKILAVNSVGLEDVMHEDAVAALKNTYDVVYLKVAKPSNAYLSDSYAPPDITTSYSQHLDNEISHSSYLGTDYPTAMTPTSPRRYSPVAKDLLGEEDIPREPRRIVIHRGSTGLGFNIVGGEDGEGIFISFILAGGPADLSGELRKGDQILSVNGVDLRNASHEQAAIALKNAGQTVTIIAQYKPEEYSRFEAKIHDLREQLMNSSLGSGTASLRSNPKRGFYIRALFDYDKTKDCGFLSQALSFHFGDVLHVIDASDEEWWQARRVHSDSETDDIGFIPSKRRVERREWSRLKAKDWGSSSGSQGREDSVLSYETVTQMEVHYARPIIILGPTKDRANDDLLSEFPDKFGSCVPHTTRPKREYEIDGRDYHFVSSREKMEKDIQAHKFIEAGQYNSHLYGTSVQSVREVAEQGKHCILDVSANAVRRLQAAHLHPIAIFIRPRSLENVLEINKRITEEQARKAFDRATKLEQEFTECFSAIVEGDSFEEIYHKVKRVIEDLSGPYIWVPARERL

Substance: GluN2B with its C-terminal domain replaced by that of GluN2A (Glun2b^2A(CTR)/2A(CTR) knock-in)
- 1.5-NR, % of WT: 6 % of WT
